No end group written: not given here.
Target: recombinant HLA-DRB1*01:01 protein (HLA-DR α chain with DRB1*01:01 β chain) (human)

Row | Binder | Kd [nM]
1 | DAQGTLSKIFKLGGRDSRSGSPMAR (not fully specified; also: thioredoxin-fused, end not given here, biotinylated chemically (EZ-Link Sulfo-NHS-LC-biotin, 1:20), position not given here) [thioredoxin-fused MBP 146-170 (MBP epitope library), biotinylated] | 101
2 | TQDENPVVHFFKNIVTPRTPPPSQ (not fully specified; also: thioredoxin-fused, end not given here, biotinylated chemically (EZ-Link Sulfo-NHS-LC-biotin, 1:20), position not given here) [thioredoxin-fused MBP 81-104 (MBP epitope library), biotinylated] | 103
3 | TQDENPVVHFFKNIVTPRTPPPSQ (also: biotinylated, position not given here) [chemically synthesized biotinylated peptide MBP 81-104] | 22
4 | DAQGTLSKIFKLGGRDSRSGSPMAR (also: biotinylated, position not given here) [chemically synthesized biotinylated peptide MBP 146-170] | 52

Source: paper PMC6978714 (2019)
